# Assay: yeast display, Sf9 membrane polyspecificity reagent, FACS + sequencing; frameworks hold sequencing errors
# Procedure, shortened: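 A nanobody's polyreactivity label depends on the gate it was sorted from. Yeast display cells were stained with 10% biotinylated, detergent-solubilized Sf9 membrane reagent for 1 hour at 4 °C, enriched on streptavidin microbeads and sorted by FACS. The low and high (top ~1%) gates were set on anti-HA fluorescence for expression and streptavidin fluorescence for reagent binding.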
row,Sequence,polyreactivity (PSR sort gate)
1,QVQLVESGGGLVQAGGSLRLSCAASGNIFRYYAMGWYRPAPGKERELVAAISSRGGSTYYADSVKGRFTISRDNAKNTVYLQMTSLKPADTAVYYCAAGGYDVYHDPYYYWGQGTQVTVSS,low polyreactivity
2,QVQLVESGGGLVQAGGSLRLSCAASGNIFSAYAMGWYRQAPGKEREFVAAISYSGGNTYYADSVKGRFTISRDNAKNTVYLLMNSLKPEVSAVYYCAARVLNKYYRYGYWGQGTQVTVSS,high polyreactivity
3,QVQLVESGGGLVQAGGSLRLSCAASGNIFSDYAMGSYRQAPGKERELVAAISSGGNTNYADSVKGRFSISRDNAKKTVYLQMNSLKPEDTAVYYCAAFYNTTYTLLPAYSDVNYYYWGQGTQVTVSS,low polyreactivity
4,QVQLVESGGGLVQAGGSLRLSCAASGNIFSFYTMGWYRQAPGKERELVAAISWSGTSTYYADSVKGRFTISRDNAKNTVYLQMNSLKPEDTAVYYCAAERWWSGYEYWGQGTQVTVSS,high polyreactivity
5,QVQLVESGGGLVQAGGSLRLSCAASGNIFSYNAMGWYRQAPGKERELVAAITTSSGRTYYADSVKGRFTISRDNAKNTVYLQMNSLKPEDTAVYYCNRTVSRRSYRWDYDYWGQGTQVTVSS,high polyreactivity
6,QVQLVESGGGLVQAGGSLRLSCAASGNIFTGNDMGWYRQAPGKERELVAAISKRGGSTFYADSVKGRFTISRDNAKNTVYLQMNSLKPEDTEGYYCNALRRGVRDPYGYWGQGTQVTVSS,high polyreactivity
7,QVQLVESGGGLVQAGGSLRLSCAASGNIFTSYAMGWYRQAPGKERELVAAISSGGRTSYADSVKGRFTISRDNAKNTVYLQMNSLKPEDTAVYYCAAYYRRWPREYYYWGQGTQVTVSS,high polyreactivity
8,QVQLVESGGGLVQAGGSLRLSCAASGNIFTTYAMGWYRQAPGKERELVAAISRTGGRTSYADSVKGRFTISRDNAKNTVYLEMNSLKPVDTAVYYCADTLWRQSNLEYWGQGTQVTVSS,high polyreactivity
9,QVQLVESGGGLVQAGGSLRLSCAASGNIFVFYVMGWYRQAPGKERELVASISSTGNTYYADSVKGRFTISRDNAKNTVYLQMNSLKPEDTAVYYCAAEYYSIRYGPHSIEVYGMDYWGQGTQVTVSS,low polyreactivity
10,QVQLVESGGGLVQAGGSLRLSCAASGNIFVRYVMGWYRQAPGKERELVAAITTSGGSTRYADSVKGRFTISRDNAKNTVYLQMNSLKPEDTAVYYCAARFRYRHLTYGYWGQGTQVTVSS,high polyreactivity
11,QVQLVESGGGLVQAGGSLRLSCAASGNIFWRYAMGWYRQAPGKERELVAAISRRGGSTYYADSVKGRFTISRDNAKNTVYLQMNSLKPEDTAVYYCAASHSTWFSDPYGYWGQGTQVTVSS,low polyreactivity
12,QVQLVESGGGLVQAGGSLRLSCAASGNIFYIYAMGWYRQAPGKERELVASISGRGGRTYYADSVKGRFTISRDNAKNTVYLQMNSLKPEDTAVYYCAADGYRTYSEMDYWGQGTQVTVSS,high polyreactivity
13,QVQLVESGGGLVQAGGSLRLSCAASGNIFYKNNMGWYRQAPGKERELVAAISFSGGGTYYADSVKGRFTISRDNAKNTVYLQMNSLKPEDTAVYYCAAEYTYGWTYRPFDYWGQGTQVTVSS,high polyreactivity
14,QVQLVESGGGLVQAGGSLRLSCAASGNIFYNGMGWYRQAPGKERELVAAIRGSAGRTYADSVKGRFTISRDNAKNTVYLQMNILKPEDTAVYYCAAAKRYYSEMYWGQGTQVTVSS,high polyreactivity
15,QVQLVESGGGLVQAGGSLRLSCAASGNIFYPNAMGGSRQAPGKERGLVAAISSSGGSTYYADSVKGRFTISRDNAKNTVYLQINSLKPEDTAVYYCAKDRSYAYYWSPYPTGYDYWGQGTQVTVSS,low polyreactivity
16,QVQLVESGGGLVQAGGSLRLSCAASGNIFYTNAMGWYRQAPGKERELVATISRSVGSTYYADSVKGRFTISRDNAKNTVYLQMNSLKPEDTAVYYCAASRLLSALTAYSWGFNYWGQGSQVTVSS,high polyreactivity
17,QVQLVESGGGLVQAGGSLRLSCAASGNIFYVYVMGWYRQAPGKERELVAAISRGGGSTYYADSVKGRFTISRDNAKNTVSLQMNSLKPEDTAVYYCAARRGYPSGYEYWGQGTQVTVSS,high polyreactivity
18,QVQLVESGGGLVQAGGSLRLSCAASGNIFYWNVMGWYRQAPGKERELVAVISNGGRTYYADSVKGRFTISRDNAKNTVYLQMNSLKPEDTAVYYCAAEYDRLSKRYDYWGQGTQVTVSS,high polyreactivity
19,QVQLVESGGGLVQAGGSLRLSCAASGNIIDANAMGWYRQAPWKERELVAAITSSGGSTYYADSVKGRFTISRDNAKNTVYLQMNSLNPEDTAVYYCAKSHAIYYWWDESWGQGTQVTVSS,low polyreactivity
20,QVQLVESGGGLVQAGGSLRLSCAASGNIIRKYAMGWYRPAPGKERELVAAITASGGRTFYADSVKGRFTISRDNAKNTVDLQMNSLKPEDTAVYYCATRDSPRTKNGYYYWGQGTQVTVSS,high polyreactivity
21,QVQLVESGGGLVQAGGSLRLSCAASGNIIRSYMGWYRQAPGKERELVASISRRGGSTYYADSVKGRFTISRDNAKNTVYLHMNSLKPEDTAVYYCARRWSWVNGVFGYYWGQGTQVSVSS,high polyreactivity
22,QVQLVESGGGLVQAGGSLRLSCAASGNILFYNSMGWYRQAPGKERELVAAISRSAGSTYYADSVKGRFTISRDNAKNTVYLQMNRLKAEDTAVYYCAAQYFRRSGYWGQGTQVTVSS,high polyreactivity
23,QVQLVESGGGLVQAGGSLRLSCAASGNILLFNAMGWYRQAPGKERELVATINQSGGRTYYADSVKGRFTISRDNAKNTVYLQMNSLKPEDTAVYYCNAPGSPVVQQPGYYWGQGTQVTVSS,low polyreactivity
24,QVQLVESGGGLVQAGGSLRLSCAASGNILRGYAMGWYRQAPGKERELVAAINRGGGSTYYADSVKGRFTISRDYAKNTVYFQMNSLKPEDTAVYYCAARYPHRGYTFDYWGQGTQVTVSS,low polyreactivity
25,QVQLVESGGGLVQAGGSLRLSCAASGNILWFNAMGWYRQAPGKERELVASISSSGGRTYYADSVKGRFTISRDNAKNTVYLQMNSLKPEDTAVYYCAAEYYYGWTYSGGLGFLGYNYWGQGTQVTVSS,low polyreactivity
26,QVQLVESGGGLVQAGGSLRLSCAASGNIRNYGLGWYRQAPGKERELVAAITVSGSRTYYADSVKGRFTISRDNAKNTVYLQMNSLKPEDTAVSYCAARGYNTLTRYDYWGQGTQVTVTS,high polyreactivity
27,QVQLVESGGGLVQAGGSLRLSCAASGNNFYINAMGSYRQAPGKERELVAAIRGGGSTYYADSVKGRFTISRDNAKNTVYLQMNSLKPEDTAVYYCAARGRRLNPQYRAFGMDYWGQGTQVTVSS,high polyreactivity
28,QVQLVESGGGLVQAGGSLRLSCAASGNSFSQYAMGWYRQAPGKERELVATISKSSGSTYYADSVKGRFTISRDNAKNTVYLQMNSLKPEDTAVYSCNAVSSDVYHHLGVLFFSTWYDYWGQGTQVTLSS,low polyreactivity
29,QVQLVESGGGLVQAGGSLRLSCAASGNTFAAYAMGWYRQAPGKEWELVAAITTSGGITYYADSVKGRFTISRDNAKNTVYLQMNSLKPEDTAVYYCAVDGGRWGQGTQVTVSS,low polyreactivity
30,QVQLVESGGGLVQAGGSLRLSCAASGNTFADYAMGWYSQAPGKERELVADLTFSGGGTYYADSVKGRFTISRDNAKNTVYLQMNSLKPEDTPVYDCNADLDSYVGDEYDHWGQGTQVTVSS,low polyreactivity

# — the nanobody polyreactivity screen of Harvey et al. (2022)
